Changes are numbered by the printed parent chain. Names and notes keep the numbering of the source. Read-outs that look alike come from different tables or passages of the source.

Assay [1] addresses T1, recombinant human soluble gpNMB (recombinant human gpNMB-FLAG-His) (human, UniProt Q14956 23-498).
T1 sequence: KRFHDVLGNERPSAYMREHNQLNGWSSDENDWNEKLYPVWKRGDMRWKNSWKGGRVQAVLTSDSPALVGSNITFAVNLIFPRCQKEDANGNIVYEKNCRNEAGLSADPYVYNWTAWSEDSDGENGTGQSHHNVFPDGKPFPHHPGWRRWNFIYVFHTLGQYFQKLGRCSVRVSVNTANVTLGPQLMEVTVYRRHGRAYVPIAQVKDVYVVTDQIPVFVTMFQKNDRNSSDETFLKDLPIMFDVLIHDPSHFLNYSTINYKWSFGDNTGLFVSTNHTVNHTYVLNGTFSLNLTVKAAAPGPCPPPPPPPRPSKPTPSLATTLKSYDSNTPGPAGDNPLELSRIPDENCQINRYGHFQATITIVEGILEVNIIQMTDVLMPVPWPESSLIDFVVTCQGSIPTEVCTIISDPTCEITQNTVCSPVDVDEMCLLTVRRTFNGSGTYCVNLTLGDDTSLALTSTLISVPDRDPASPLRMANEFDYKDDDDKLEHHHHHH
Put plainly: antigen ELISA, vs hGPN06-1_H1L1. Background: In an ELISA, binding on a coated surface is turned into a signal by an enzyme label.

Assay [2] addresses T1, recombinant human soluble gpNMB …. Put plainly: antigen ELISA.
For assay [3] the target is unchanged. In words: antigen ELISA. This is another data set of the same source.
Assay [4] shares this target. Put plainly: antigen ELISA, vs hGPN06-1_H1L1. The source holds these as a separate data set.

B1: hGPN06-1_H1L1 VH M34A (antibody, V domains shown)
VH: QVQLVQSGAEVKKPGASVKVSCKASGYTFTDNWAGWVKQRPGQGLEWIGAIDPSDSFTNYNQNFKGRVTMTVDTSISTAYMELSRLRSDDSAVYFCTRSGYYGSPKLGGDYWGQGTLVTVSS
VL: EIVLTQSPSSLSASVGDRVTITCSASSSISYMHWYQQKSGTAPKLLIYSTSNLASGVPSRFSGSGSGTDFTFTISSLQPEDAATYYCHQWNSYPCTFGGGTKLEIK
One may read the EC50 as the concentration giving half of the maximal effect. Turning to B1, the Relative binding activity in assay [1] worked out at 1.06. Moreover, in assay [2], the EC50 was found to be 3.55 nM.

B2: hGPN06-1_H1L1 VH S54A (antibody, V domains shown)
VH: B1 VH with A34M, S54A
VL: B1 VL
Take B2: in assay [1], the Relative binding activity worked out at 0.92. Further, the half-maximal effective concentration (EC50) in assay [2] came to 0.652 nM.

B3: hGPN06-1_H1L1 VH Y27A (antibody, V domains shown)
VH: B1 VH with Y27A, A34M
VL: B1 VL
For the molecule B3, the Relative binding activity in assay [1] amounted to 0.02. Moreover, the concentration for a half-maximal effect (EC50) in assay [2] is 69.9 nM.

B4: hGPN06-1_H1L1 VL S30A (antibody, V domains shown)
VH: B1 VH with A34M
VL: B1 VL with S30A
On to B4, for which the half-maximal effective concentration (EC50) in assay [3] was determined as 8.63 nM. Further, the Relative binding activity in assay [4] stood at 0.58.

B5: hGPN06-1_H1L1 VL I29A (antibody, V domains shown)
VH: B1 VH with A34M
VL: B1 VL with I29A
Take B5: the concentration for a half-maximal effect (EC50) in assay [3] came out at 23 nM. Further, the Relative binding activity in assay [4] amounted to 0.27.

B6: hGPN06-1_H1L1 VH T30A (antibody, V domains shown)
VH: B1 VH with T30A, A34M
VL: B1 VL
As to B6, in assay [1], the Relative binding activity was 1.23. In addition, in assay [2], the EC50 worked out at 2.02 nM.

B7: hGPN06-1_H1L1 VH T58A (antibody, V domains shown)
VH: B1 VH with A34M, T58A
VL: B1 VL
Regarding B7, the Relative binding activity in assay [1] is 0.04. Also, the EC50 in assay [2] amounted to 28 nM.

B8: hGPN06-1_H1L1 VL P94A (antibody, V domains shown)
VH: B1 VH with A34M
VL: B1 VL with P94A
B8: in assay [3], the EC50 came to 26.4 nM. Also, the Relative binding activity in assay [4] was determined as 0.05.

B9: hGPN06-1_H1L1 VH P53A (antibody, V domains shown)
VH: B1 VH with A34M, P53A
VL: B1 VL
In the case of B9, the Relative binding activity in assay [1] turned out to be 0.85. Further, the EC50 in assay [2] came to 0.801 nM.

B10: hGPN06-1_H1L1 VL S55A (antibody, V domains shown)
VH: B1 VH with A34M
VL: B1 VL with S55A
As to B10, the EC50 in assay [3] stood at 0.603 nM. Also, the Relative binding activity in assay [4] was determined as 1.

B11: hGPN06-1_H1L1 VH Q62A (antibody, V domains shown)
VH: B1 VH with A34M, Q62A
VL: B1 VL
For the molecule B11, the Relative binding activity in assay [1] stood at 1.14. Besides, the EC50 in assay [2] was 0.406 nM.

B12: hGPN06-1_H1L1 VH T28A (antibody, V domains shown)
VH: B1 VH with T28A, A34M
VL: B1 VL
Consider B12, for which the Relative binding activity in assay [1] was 1.49. The EC50 in assay [2] was determined as 1.98 nM.

B13: hGPN06-1_H1L1 VL S27A (antibody, V domains shown)
VH: B1 VH with A34M
VL: B1 VL with S27A
B13: in assay [3], the EC50 worked out at 1.56 nM. Further, the Relative binding activity in assay [4] amounted to 0.99.

B14: hGPN06-1_H1L1 VL N52A (antibody, V domains shown)
VH: B1 VH with A34M
VL: B1 VL with N52A
Regarding B14, in assay [3], the EC50 is 0.85 nM. In addition, in assay [4], the Relative binding activity is 0.74.

B15: hGPN06-1_H1L1 VH N63A (antibody, V domains shown)
VH: B1 VH with A34M, N63A
VL: B1 VL
Take B15: the Relative binding activity in assay [1] stood at 1.07. Moreover, the EC50 in assay [2] was determined as 0.439 nM.

B16: hGPN06-1_H1L1 VL S49A (antibody, V domains shown)
VH: B1 VH with A34M
VL: B1 VL with S49A
On to B16, for which the 50% effective concentration (EC50) in assay [3] was 0.7 nM. Besides, the Relative binding activity in assay [4] turned out to be 0.79.

B17: hGPN06-1_H1L1 VL C95A (antibody, V domains shown)
VH: B1 VH with A34M
VL: B1 VL with C95A
Take B17: the concentration giving a half-maximal response (EC50) in assay [3] came out at 3.15 nM. Further, the Relative binding activity in assay [4] was found to be 0.45.

B18: hGPN06-1_H1L1 VL M32A (antibody, V domains shown)
VH: B1 VH with A34M
VL: B1 VL with M32A
As for B18, the EC50 in assay [3] stood at 6.4 nM. Further, in assay [4], the Relative binding activity worked out at 0.65.

B19: hGPN06-1_H1L1 VL S26A (antibody, V domains shown)
VH: B1 VH with A34M
VL: B1 VL with S26A
Take B19: the EC50 in assay [3] is 1.09 nM. The Relative binding activity in assay [4] came to 0.75.

B20: hGPN06-1_H1L1 VH N61A (antibody, V domains shown)
VH: B1 VH with A34M, N61A
VL: B1 VL
Take B20: in assay [1], the Relative binding activity stood at 0.04. Moreover, in assay [2], the EC50 was found to be 26.1 nM.

B21: hGPN06-1_H1L1 VL L53A (antibody, V domains shown)
VH: B1 VH with A34M
VL: B1 VL with L53A
For B21, the EC50 in assay [3] came to 0.564 nM. Moreover, in assay [4], the Relative binding activity was determined as 0.98.

B22: hGPN06-1_H1L1 VL S51A (antibody, V domains shown)
VH: B1 VH with A34M
VL: B1 VL with S51A
For the molecule B22, the EC50 in assay [3] was found to be 0.927 nM. In assay [4], the Relative binding activity amounted to 0.82.

B23: hGPN06-1_H1L1 VL N91A (antibody, V domains shown)
VH: B1 VH with A34M
VL: B1 VL with N91A
B23: the EC50 in assay [3] was determined as 1.84 nM. Besides, in assay [4], the Relative binding activity was determined as 0.58.

B24: hGPN06-1_H1L1 VL H33A (antibody, V domains shown)
VH: B1 VH with A34M
VL: B1 VL with H33A
On to B24, for which the half-maximal effective concentration (EC50) in assay [3] turned out to be 42.9 nM. For the same molecule, in assay [4], the Relative binding activity was found to be 0.28.

B25: hGPN06-1_H1L1 VL H88A (antibody, V domains shown)
VH: B1 VH with A34M
VL: B1 VL with H88A
For the molecule B25, the concentration for a half-maximal effect (EC50) in assay [3] came out at 147 nM. The Relative binding activity in assay [4] was determined as 0.08.

B26: hGPN06-1_H1L1 VH N32A (antibody, V domains shown)
VH: B1 VH with N32A, A34M
VL: B1 VL
Regarding B26, the Relative binding activity in assay [1] stood at 0.35. Moreover, the 50% effective concentration (EC50) in assay [2] is 7.83 nM.

B27: hGPN06-1_H1L1 VL S28A (antibody, V domains shown)
VH: B1 VH with A34M
VL: B1 VL with S28A
B27: in assay [3], the half-maximal effective concentration (EC50) amounted to 1.27 nM. Further, in assay [4], the Relative binding activity is 1.18.

B28: hGPN06-1_H1L1 VH Y60A (antibody, V domains shown)
VH: B1 VH with A34M, Y60A
VL: B1 VL
As to B28, the Relative binding activity in assay [1] was 0.04. The EC50 in assay [2] stood at 128 nM.

B29: hGPN06-1_H1L1 VL S24A (antibody, V domains shown)
VH: B1 VH with A34M
VL: B1 VL with S24A
Regarding B29, the EC50 in assay [3] stood at 1.99 nM. Moreover, the Relative binding activity in assay [4] came to 0.98.

B30: hGPN06-1_H1L1 VH N59A (antibody, V domains shown)
VH: B1 VH with A34M, N59A
VL: B1 VL
As for B30, the Relative binding activity in assay [1] worked out at 0.04. The EC50 in assay [2] was determined as 29.4 nM.

B31: hGPN06-1_H1L1 VL Q89A (antibody, V domains shown)
VH: B1 VH with A34M
VL: B1 VL with Q89A
With B31, in assay [3], the concentration for a half-maximal effect (EC50) was determined as 27.5 nM. Moreover, the Relative binding activity in assay [4] turned out to be 0.06.

B32: hGPN06-1_H1L1 VH W33A (antibody, V domains shown)
VH: B1 VH with W33A, A34M
VL: B1 VL
Take B32: the Relative binding activity in assay [1] worked out at 0.06. Besides, the 50% effective concentration (EC50) in assay [2] is 28.1 nM.

B33: hGPN06-1_H1L1 VH S56A (antibody, V domains shown)
VH: B1 VH with A34M, S56A
VL: B1 VL
With B33, in assay [1], the Relative binding activity turned out to be 1.14. Further, the EC50 in assay [2] was 0.429 nM.

The record behind these values is EP4772193A1 (Teijin Pharma Limited, dated 2026).
